Experiments:
Format in all cases: cell-based, human
HUVEC = test: Endothelial cell differentiation (tube formation) assay on Matrigel
Procedure: Endothelial cell differentiation (tube formation) assays were done using the in vitro angiogenesis assay kit (Chemicon, Temecula, Calif.). Briefly, HUVEC and HMVEC were grown to 80% confluency, collected, resuspended in growth medium, and plated at a concentration of 2−10^4 cells/well in a 96-well plate coated with Matrigel (Chemicon, Temecula, Calif.). Cells were treated with sMDA-7 protein (1, 5, 10, and 50 ng/ml), or a preparation immunodepleted of sMDA protein for 24 h at 37° C. Cells treated with PBS served as negative controls in these experiments. The ability of sMDA-7 to inhibit tube formation was determined and quantitated by counting the number of tubes under bright-field microscopy.
For experiments involving comparative studies, cells were treated with equimolar concentrations of sMDA-7 (5, 10, and 300 ng/ml), recombinant human endostatin (5.2, 10.4, and 315 ng/ml; Calbiochem, La Jolla, Calif.), recombinant IFN-γ (4.5, 9, and 268 ng/ml; R&D systems, Minneapolis, Minn.) or recombinant IP-10 (2.4, 4.5, and 134 ng/ml; R&D systems, Minneapolis, Minn.) and analyzed for tube formation assay as described above. All samples were tested in duplicate. Experiments were repeated at least 5-6 times.
For receptor blocking studies, HUVEC grown in six-well plates were pretreated with IL-22R1 blocking antibody (1 ng/ml and 5 ng/ml). Following overnight incubation, cells were harvested, washed, and plated in Matrigel coated 96-well plates. Fresh IL-22R1 blocking antibody and sMDA-7 was added to the wells in a 1:1 ratio (1 ng/ml of IL-22R1 antibody:1 ng/ml of sMDA-7) or 1:5 ratio (1 ng/ml of IL-22R1 antibody:5 ng/ml of sMDA-7) and incubated at 37° C. After overnight incubation, the plates were examined for tube formation. All other experimental procedures were the same as described above. […] The relative amount of IL-22R1 used for experiments involving endostatin was 315 ng/ml (1:1 ratio) and 134 ng/ml for experiments involving IP-10 (1:1 ratio). All other experimental procedures were the same as described previously. For blocking studies using anti-IP-10 or anti-IFN-γ neutralizing antibodies (R & D Systems), experiments were conducted as described above for receptor studies except that HUVEC were treated with the appropriate neutralizing antibody (1 μg and 5 μg/ml) prior to treatment with sMDA-7 (300 ng/ml).

STAT-3 = STAT-3 activation, western blot and immunofluorescence; settings: HUVEC; 10 ng/ml; 4 h to 24 h
Procedure: Therefore, studies were conducted to determine the activation of STAT-3 expression in endothelial cells after treatment with sMDA-7. HUVEC were seeded in 6-well plates (5×10^5 cells/well) and treated with sMDA-7 (10 ng/ml). Untreated cells served as negative controls. Cells were harvested at 4 h and 24 h after treatment and analyzed for STAT-3 expression by western blot analysis as previously described (Mhashilkar et al., 2001; Pataer et al., 2002). […] (pSTAT-3) protein was detected using rabbit anti-human pSTAT-3 antibody (1:1000, Cell Signaling Technology, Beverly, Mass.) and horseradish peroxidase-labeled secondary antibody (Amersham Biosciences, Piscataway, N.J.). Finally, the proteins were visualized on enhanced chemiluminescence film (Hyperfilm, Amersham Biosciences, Piscataway, N.J.) by application of Amersham's enhanced chemiluminescence western blotting detection system. STAT-3 protein expression level was quantitated after normalization with total STAT-3 protein expression using Image Quant software (Molecular Dynamics, Amersham Pharmacia Biotech, Piscataway, N.J.).
Activation of STAT-3 was also determined by immunofluorescence assay. […] Pictures were taken through a fluorescence microscope 1-2 h after staining.

A375.S2 = test: TUNEL apoptosis assay; settings: 40 ng/ml, 3 days
Procedure: (§1) The mechanism of the anti-tumor activity of rhMDA-7 was also evaluated. Melanoma cells were treated with rhMDA-7 protein and assessed for apoptosis using the TUNEL assay. […] These studies were performed with purified rhMDA-7 protein. The melanoma cells have also been treated with supernatant from 293-mda7 cells or control 293 cells. Only the 293-mda7 supernatant causes cell killing.

A375 = test: TUNEL apoptosis assay; settings: 40 ng/ml, 3 days
Procedure: as §1

MeWo = test: TUNEL apoptosis assay; settings: 40 ng/ml, 3 days
Procedure: as §1

SK-Mel-1 = test: TUNEL apoptosis assay; settings: 40 ng/ml, 3 days
Procedure: as §1

WM35 = test: TUNEL apoptosis assay; settings: 40 ng/ml, 3 days
Procedure: as §1

WM793 = test: TUNEL apoptosis assay; settings: 40 ng/ml, 3 days
Procedure: as §1

[1] = system: IRF-1 and IRF-2 in MeWo cells; test: Immunoblotting of IRF-1 and IRF-2; settings: within 4 h
Procedure: Two×10^6 cultured melanoma cell lines were rinsed twice in ice-cold PBS and lysed in 60 μl of lysis buffer [25 mM Tris, 140 mM NaCl, and 1% NP40 (pH 7.5)] containing 5 mM EDTA, 0.2 mM orthovanadate, 10 mM NaF, leupeptin, aprotinin, and phenylmethylsulfonyl fluoride for 10 min on ice. Equal amounts of total protein (measured with DC Protein Assay Reagent; Bio-Rad Labs, Hercules, Calif.) were loaded on a standard 10% SDS polyacrylamide gel, and fractionated proteins were electroblotted onto a nitrocellulose membrane. Nitrocellulose membranes were blocked for 1 h at room temperature using 5% dry milk in 1× PBS and washed three times for 5 min each in PBS containing 0.05% Tween 20 at room temperature. The membranes were incubated overnight at 4° C. in a sealed bag with a 1:2000 dilution of IRF-1 and IRF-2 polyclonal antibodies in 10 ml of 5% dry milk/0.1% Tween 20 in 1× PBS. The membranes were washed three times for 5 min each in PBS containing 0.05% Tween 20, and then incubated with peroxidase-conjugated antirabbit IgG secondary antibody (Transduction Laboratories) at 1:2000 dilution in PBS with 5% dry milk and 0.1 % Tween 20 for 45 min at room temperature. The blots were visualized using an enhanced chemiluminescence detection kit (Amersham, Arlington Heights, Ill.).

B1: sMDA-7: soluble secreted human MDA-7 (IL-24) protein purified from stably transfected 293-mda-7 cells (protein)
chain: AQGQEFHFGPCQVKGVVPQKLWEAFWAVKDTMQAQDNITSARLLQQEVLQNVSDAESCYLVHTLLEFYLKTVFKNYHNRTVEVRTLKSFSTLANNFVLIVSQLQPSQENEMFSIRDSAHRRFLLFRRAFKQLDVEAALTKALGEVDILLTWMQKFYKL
Q: Which results are given for B1?
A: inhibitory activity on tube formation in presence of anti-IP-10 or anti-IFN-γ neutralizing antibodies (HUVEC): not lost; tube formation (HUVEC; 5 ng/ml alone): completely inhibited; formation of capillary tube-like structures (HUVEC; HUVEC and HMVEC, 1, 5, 10, 50 ng/ml): significantly inhibited; concentration required to significantly inhibit HUVEC tube formation (HUVEC; equimolar comparison): 10 ng/mL; increase in pSTAT-3 expression over PBS treated control (STAT-3): 2-3 times; % TUNEL Positive (A375.S2): 12.3%; % TUNEL Positive (A375): 18.78%; % TUNEL Positive (MeWo): 12.11%; % TUNEL Positive (SK-Mel-1): 5.0%; % TUNEL Positive (WM35): 17.88%; % TUNEL Positive (WM793): 9.88%; fall in IRF-1 expression [1]: ~4 fold; increase in IRF-2 expression [1]: 4.7 fold

— patent US20060134801A1, “Methods and compositions involving MDA-7” (Board of Regents, The University of Texas System, priority 2003, published 2006)
